# Laboratory results published in IntAct's records for PubMed 19011093.
# B1: RAN GTPase-activating protein 1 (Arabidopsis thaliana (Mouse-ear cress)), Q9LE82 (parent)
# chain: MDHSAKTTQNRVLSVKMWPPSKSTRLMLVERMTKNITTPSIFSRKYGLLSVEEAEQDAKRIEDLAFATANKHFQNEPDGDGTSAVHVYAKESSKLMLDVIKRGPQEESEVEVSKDGDVFFDISGGSRAFIEEEEARDLLRPLADPRNSYTKIRFSNRSFGSEAAKFAASVLSSIKDQLTEVDLSDFVAGRPEAEALEVMNMFSSALEGSKLRYLNLSDNALGEKGIRAFASLINSQHDLEELYLMNDGISEDAARAVRELLPSTDKIRVLQFHNNMTGDEGATAIAEIVRECPSLEDFRCSSTRIGSEGGVALAEALEHCSHLKKLDLRDNMFGVEGGIALAKTLSVLTHLTEIYMSYLNLEDEGTEALSEALLKSAPSLEVLELAGNDITVKSTGNLAACIASKQSLAKLNLSENELKDEGTILIAKAVEGHDQLVEVDLSTNMIRRAGARALAQTVVKKNTFKLLNINGNFISEEGIDEVNDMFKDCLDKLVPLDDNDPEGEDFEDEDEEEEGEDGNELESKLGSLKIKQGEE
# Variants of: B1
# Conditions: with kn12c_arath KIN12C
row,effect of a mutation on the interaction,Variant
1,decreasing interaction,MDHSAKTTQNRVLSVKMAAPSKSTRLMLVERMTKNITTPSIFSRKYGLLSVEEAEQDAKRIEDLAFATANKHFQNEPDGDGTSAVHVYAKESSKLMLDVIKRGPQEESEVEVSKDGDVFFDISGGSRAFIEEEEARDLLRPLADPRNSYTKIRFSNRSFGSEAAKFAASVLSSIKDQLTEVDLSDFVAGRPEAEALEVMNMFSSALEGSKLRYLNLSDNALGEKGIRAFASLINSQHDLEELYLMNDGISEDAARAVRELLPSTDKIRVLQFHNNMTGDEGATAIAEIVRECPSLEDFRCSSTRIGSEGGVALAEALEHCSHLKKLDLRDNMFGVEGGIALAKTLSVLTHLTEIYMSYLNLEDEGTEALSEALLKSAPSLEVLELAGNDITVKSTGNLAACIASKQSLAKLNLSENELKDEGTILIAKAVEGHDQLVEVDLSTNMIRRAGARALAQTVVKKNTFKLLNINGNFISEEGIDEVNDMFKDCLDKLVPLDDNDPEGEDFEDEDEEEEGEDGNELESKLGSLKIKQGEE [W18A;P19A]
